{
  "source": "patent USH1453H",
  "about": "“N-acetyl-D-glucosamine deacetylase and a process for preparing the same” (priority 1993, dated 1995)",
  "key": {"[1]": {"assay": "Determination of the enzymatic activity (D-glucosamine formed, indole-HCl colorimetry)", "format": "biochemical", "settings": "37° C.; for specific activity: pH 7.8", "procedure": "An enzyme solution (0.1 ml) is added to 0.3 ml of 100 mM phosphate buffer (pH 7.8) containing 0.1 ml of 1% N-acetyl-D-glucosamine as a substrate, and the resultant mixture is incubated at 37° C. for 30 minutes. The amount of D-glucosamine formed is determined colorimetrically using indole-HCl according to the method of Z. Dische and E. Borenfreund [J. Biol. Chem., 184:517 (1950)]. One unit of the enzyme is defined as the amount of the enzyme which is capable of producing 1 μmol D-glucosaminefrom N-acetyl-D-glucosamine per minute at 37° C."}, "[2]": {"assay": "Optimal pH of the enzyme", "format": "biochemical", "settings": "at 37° C.; indole-HCl method at pH 5.6-10.8", "procedure": "The optimal pH of the enzyme of the present invention varies widely depending on the origin of the microorganism used to produce the enzyme, but usually in the range of about 4.0-9.0. For example, the optimal pH of the enzyme derived from Vibrio sp. is in the range of 7.8-8.2 as determined colorimetrically according to indole-HCl method at pH 5.6-10.8. The buffer solution used at pH 5.6-6.0 is 100 mM CH3 COOH--CH3 COONa, at pH 6.0-9.0, 100 mM […] -Na2 HPO4 is used, and at pH 9.6-10.8, 200 mM Na2 HPO4 -NaOH is used."}, "[3]": {"assay": "Stable pH of the enzyme", "format": "physicochemical", "settings": "not less than 50% of initial activity retained, determined at 37° C. after incubation at 45° C. for 30 minutes", "procedure": "The stable pH wherein not less than 50% of the initial activity of the enzyme is retained, as determined at 37° C. after incubation in a given buffer at 45° C. for 30 minutes, varies depending on the origin of the microorganism used to produce the enzyme, but usually ranges from about 3.0 to 9.0. For example, the stable pH of the enzyme derived from Vibrio sp. is in the range of about 6.0-9.0."}, "[4]": {"tested_on": "Mucor sp.", "settings": "method using a microorganism belonging to Mucor sp.; cited from earlier work"}, "[5]": {"biological_target": "N-acetyl-D-glucosamine deacetylase (Vibrio cholerae, UniProt O32445)", "sequence (O32445 whole entry)": "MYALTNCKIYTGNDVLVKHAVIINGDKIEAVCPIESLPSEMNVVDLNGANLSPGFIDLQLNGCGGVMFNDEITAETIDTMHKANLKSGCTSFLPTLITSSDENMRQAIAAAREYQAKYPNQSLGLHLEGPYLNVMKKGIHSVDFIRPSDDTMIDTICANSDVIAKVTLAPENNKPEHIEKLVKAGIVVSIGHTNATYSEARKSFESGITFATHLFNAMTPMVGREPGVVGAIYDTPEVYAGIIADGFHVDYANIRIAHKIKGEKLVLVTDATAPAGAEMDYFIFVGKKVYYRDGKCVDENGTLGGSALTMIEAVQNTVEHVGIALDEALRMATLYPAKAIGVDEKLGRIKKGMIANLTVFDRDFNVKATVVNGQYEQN", "assay": "Substrate specificity of the enzyme", "format": "biochemical, Vibrio cholerae non-01 (IFO 15429)", "settings": "substrate 0.2%, 37° C., pH 7.8, one hour"}},
  "data": [
    {"molecule": "N-acetyl-D-glucosamine deacetylase", "values": [
      {"measurement": "specific activity", "setting": "[1]; listed as enzyme", "result": 1.22, "unit": "unit/mg protein"},
      {"measurement": "specific activity", "setting": "[1]; listed as purified enzyme", "result": 1.22, "unit": "U/mg protein"},
      {"measurement": "Spec. Act.", "setting": "[1]; Table 1, per purification step, pH 7.8, 30 minutes", "result": 1.22, "unit": "Unit/mg"},
      {"measurement": "Optimal pH", "setting": "[2]", "result": "7.8-8.2"},
      {"measurement": "Stable pH", "setting": "[3]", "result": "6.0-9.0"}
    ]},
    {"molecule": "(GlcNAc)5", "values": [
      {"measurement": "deacetylated to the extent of", "setting": "[4]", "result": "12-14%"}
    ]},
    {"molecule": "CC(=O)N[C@H]1C(O)O[C@H](CO)[C@@H](O)[C@@H]1O", "note": "(stereo partly drawn) [GlcNAc, N-acetyl-D-glucosamine]", "values": [
      {"measurement": "Enzymatic Activity", "setting": "[5]", "result": 1.22, "unit": "Unit/mg"},
      {"measurement": "formation of D-glucosamine", "setting": "[5]", "result": "can be observed"}
    ]}
  ]
}
